The values that follow are results of earlier work, collected in article PMC3214078.

The target of data set [1] is Histone H3 peptide N-terminal tail (Homo sapiens) (UniProt P68431). Briefly: ITC.
Data set [2] shares this target. Nature of the data set: tryptophan fluorescence.

Chain of UHRF1 PHD (Q96T88 307-369): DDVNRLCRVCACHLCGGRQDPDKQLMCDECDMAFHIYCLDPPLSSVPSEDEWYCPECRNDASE

In the case of UHRF1 PHD (from UniProt Q96T88), the values for the dissociation constant (Kd) in data set [1] and in data set [2] were 0.93 µM and 3.8 µM, respectively.
